Test results as given in publication PMC6108569.

Biological target: OphAΔC18
Assay: crystal structure; proteins from the dimer fractions of gel filtration chromatography, incubated with SAM, SAH or sinefungin before crystallization; hanging drop vapor diffusion unless otherwise specified; homodimer in the crystal

**Q.** OphAΔC18 (enzyme) was tested. Which stoichiometry N did it give?
**A.** The stoichiometry N was 2.
